From paper PMC4005822, “Biochemical and functional characterization of Plasmodium falciparum GTP cyclohydrolase I” (Malaria Journal, 2014) come the findings set out here.

The test system of data set [1] is Nc1nc2c(ncn2[C@@H]2O[C@H](COP(=O)(O)OP(=O)(O)OP(=O)(O)O)[C@@H](O)[C@H]2O)c(=O)[nH]1. The experiment in a line: fluorescence of iodine-oxidised neopterin product. To be noted: 50 mM Tris–HCl pH 7.8, 100 mM KCl, 20% glycerol, 37°C. Type of data set: biochemical, Plasmodium falciparum.
Data set [2] deals with T1, Plasmodium falciparum Δ1-195 GCH1 (core GCH1) (Plasmodium falciparum, UniProt Q8I5H7).
T1 construct: gene PF3D7_1224000; C-terminal core domain, residues 196-389 (N-terminal 1-195 deleted); pET45b(+), E. coli BL21(DE3)RIL, Ni-sepharose purified (His tag); homodecamer
The experiment in a line: fluorescence of iodine-oxidised neopterin product; initial velocity at various GTP concentrations. Type of data set: biochemical. To be noted: GTP as substrate; called competitive by the authors.

T1 sequence (Q8I5H7 entry or part of it, stated change not applied): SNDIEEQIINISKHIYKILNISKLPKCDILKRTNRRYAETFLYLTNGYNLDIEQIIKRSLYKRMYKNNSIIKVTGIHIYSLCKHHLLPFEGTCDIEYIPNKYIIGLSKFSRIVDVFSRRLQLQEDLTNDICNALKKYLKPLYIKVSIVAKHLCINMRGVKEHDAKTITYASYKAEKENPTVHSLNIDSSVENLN

The term Km denotes the concentration of substrate that gives half-maximal velocity. As a reminder, the kcat is the maximal rate divided by the concentration of active sites. For “Plasmodium falciparum Δ1-195 GCH1 (core GCH1) (Plasmodium falciparum 3D7)”, in data set [1], the Km came out at 12.06 µM and the kcat was 0.039 s⁻¹.
`Nc1nc2c([nH]c(=O)n2[C@@H]2O[C@H](COP(=O)(O)OP(=O)(O)OP(=O)(O)O)[C@@H](O)[C@H]2O)c(=O)[nH]1` [8-oxo-GTP]: in data set [2], the “fluorescence of iodine-oxidised neopterin product; initial velocity at various G” value is listed as 8-oxo-GTP could inhibit the activity of P. falciparum GCH1 with reduced fluorescent signal.
